The record followed here is article PMC8458281, “Computational modeling and experimental validation of the EPI-X4/CXCR4 complex allows rational design of small peptide antagonists” (Communications Biology, 2021).

For assay [1], the system named is CXCR4 D97E + V112A. The experiment in a line: 12G5 antibody competition, 293T cells transfected with CXCR4 D97E + V112A. It counts as binding, human. Conditions: IC50 on CXCR4 D97E + V112A relative to wt. On the procedure: (§1) Fig. 4 The interactions of EPI-X4 and the EPI-X4 derivatives WSC02 and JM#21 with point-mutated CXCR4 were assessed by an antibody competition assay. Amino acid substitutions were introduced in the sequence of CXCR4 by site-directed mutagenesis, cloned into an IRES-eGFP expression vector, and transfected into 293 T cells. Afterward, cells were incubated with serially diluted EPI-X4 (a, b), WSC02 (c, d), or JM#21 (e, f) in presence of a constant concentration of CXCR4 specific antibody (clone 12G5). After 2 h, bound antibody was analyzed by flow cytometry. a, c, e) Representative dose-dependent replacement of 12G5 antibody by peptides. b, d, f) IC50 values were calculated by nonlinear regression. Shown are data derived from at least three individual experiments ± SEM. IC50 values were set to 1000 µM (EPI-X4 and WSC02) or 100 µM (JM#21) if the value exceeds the maximally used concentration. *p ≤ 0.05, ***p ≤ 0.001 (one-way ANOVA for comparison with wt). For IC50 values see Table 1. For all binding curves see also Fig. S8.
(§2) Mutated CXCR4 constructs were transfected into 293 T cells that have a very low endogenous expression level of wild-type CXCR4. Transfected cells were then analyzed for CXCR4 surface expression (Fig. S5a) and EPI-X4 binding using a flow cytometry-based antibody competition assay (Fig. S5b, c)[33]. […]

Assay [2] has as its system CXCR4 D187E. Put plainly: 12G5 antibody competition, 293T cells transfected with CXCR4 D187E. It counts as binding, human. Conditions: IC50 on CXCR4 D187E relative to wt. How it is done: as §1, §2
Assay [3] relates to CXCR4 V112A. The experiment in a line: 12G5 antibody competition, 293T cells transfected with CXCR4 V112A. It counts as binding, human. The conditions noted are these: IC50 on CXCR4 V112A relative to wt. On the procedure:
as §1, §2

The subject of assay [4] is CXCR4 E277A. The experiment in a line: 12G5 antibody competition, 293T cells transfected with CXCR4 E277A. Conditions: IC50 on CXCR4 E277A relative to wt. It counts as binding, human. How it is done: as §1, §2
The test system of assay [5] is CXCR4 V112A + L41A. Put plainly: 12G5 antibody competition, 293T cells transfected with CXCR4 V112A + L41A. It counts as binding, human. The conditions noted are these: IC50 on CXCR4 V112A + L41A relative to wt. How it is done: as §1, §2
The subject of assay [6] is CXCR4 D97S. The experiment in a line: 12G5 antibody competition, 293T cells transfected with CXCR4 D97S. It counts as binding, human. The conditions noted are these: IC50 on CXCR4 D97S relative to wt. How it is done:
as §1, §2

The subject of assay [7] is CXCR4 D262A. The experiment in a line: 12G5 antibody competition, 293T cells transfected with CXCR4 D262A. It counts as binding, human. Conditions: IC50 on CXCR4 D262A relative to wt. On the procedure:
as §1, §2

Assay [8] deals with CXCR4 L41A. The experiment in a line: 12G5 antibody competition, 293T cells transfected with CXCR4 L41A. It counts as binding, human. Conditions: IC50 on CXCR4 L41A relative to wt. How it is done: as §1, §2
Assay [9] deals with CXCR4 D97E. The experiment in a line: 12G5 antibody competition, 293T cells transfected with CXCR4 D97E. It counts as binding, human. Conditions: IC50 on CXCR4 D97E relative to wt. How it is done:
as §1, §2

The subject of assay [10] is CXCR4 D97E + V112L. Put plainly: 12G5 antibody competition, 293T cells transfected with CXCR4 D97E + V112L. It counts as binding, human. Conditions: IC50 on CXCR4 D97E + V112L relative to wt. On the procedure: as §1, §2
For assay [11], the system named is CXCR4 D97E + V112A + L41A. Put plainly: 12G5 antibody competition, 293T cells transfected with CXCR4 D97E + V112A + L41A. The conditions noted are these: IC50 on CXCR4 D97E + V112A + L41A relative to wt. It counts as binding, human. On the procedure:
as §1, §2

For assay [12], the target named is T1, C-X-C motif chemokine receptor 4 (CXCR4) on SupT1 cells (human (endogenous in SupT1), UniProt P61073 1-352).
T1 construct: CXCR4 as expressed on SupT1 cells; source: endogenous, on SupT1 cells
Put plainly: flow cytometry on cells; 12G5 antibody competition on SupT1 cells; peptides in PBS with APC-conjugated 12G5 at a concentration close to its EC50, 4 °C, 2 h; MFI normalized to PBS control; IC50 by nonlinear regression. The conditions noted are these: one partner purified. For orientation: In flow cytometry, cells or beads pass a laser one at a time.

The target of assay [13] is CXCR4 D262A (human, UniProt P61073-1 1-352, D262A). Put plainly: FACS.
The target in assay [14] is CXCR4 D97Q (human, UniProt P61073-1 1-352, D97Q). The experiment in a line: FACS.
Chain of CXCR4 D97Q (P61073 whole entry D97Q): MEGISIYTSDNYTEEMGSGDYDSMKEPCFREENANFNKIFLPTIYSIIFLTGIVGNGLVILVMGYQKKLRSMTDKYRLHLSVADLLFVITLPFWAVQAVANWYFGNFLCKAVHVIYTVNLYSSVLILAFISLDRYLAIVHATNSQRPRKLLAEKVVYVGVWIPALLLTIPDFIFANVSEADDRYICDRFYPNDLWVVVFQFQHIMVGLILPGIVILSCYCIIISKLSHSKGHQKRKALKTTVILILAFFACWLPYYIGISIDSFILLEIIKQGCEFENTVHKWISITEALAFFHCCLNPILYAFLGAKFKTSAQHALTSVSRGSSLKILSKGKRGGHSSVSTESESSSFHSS
For assay [15], the target named is CXCR4 D187E (human, UniProt P61073-1 1-352, D187E). The experiment in a line: FACS.
Chain of CXCR4 D187E (human, UniProt P61073-1 1-352, D187E) (P61073 whole entry D187E): as the sequence (P61073 whole entry D97Q) above, with Q97D, D187E counted along it
The target in assay [16] is CXCR4 D97S (human, UniProt P61073-1 1-352, D97S). Put plainly: FACS.
The target in assay [17] is CXCR4 D97E + V112L (human, UniProt P61073-1 1-352, D97E | V112L). The experiment in a line: FACS.
Chain of CXCR4 D97E + V112L (human, UniProt P61073-1 1-352, D97E | V112L) (P61073 whole entry D97E/V112L): as the sequence (P61073 whole entry D97Q) above, with Q97E, V112L counted along it
The target of assay [18] is T2, CXCR4 wt (transfected 293T cells) (human, UniProt P61073-1 1-352).
T2 chain: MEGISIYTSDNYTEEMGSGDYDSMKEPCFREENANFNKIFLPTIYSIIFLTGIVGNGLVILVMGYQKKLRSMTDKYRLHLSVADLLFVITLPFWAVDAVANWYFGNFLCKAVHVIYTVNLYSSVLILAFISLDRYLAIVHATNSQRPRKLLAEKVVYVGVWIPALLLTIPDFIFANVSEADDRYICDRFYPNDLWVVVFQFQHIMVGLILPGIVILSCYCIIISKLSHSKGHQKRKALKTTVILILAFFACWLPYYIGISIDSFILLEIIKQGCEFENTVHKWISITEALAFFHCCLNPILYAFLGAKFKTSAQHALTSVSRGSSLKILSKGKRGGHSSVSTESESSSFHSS
Put plainly: FACS.

Assay [19] deals with CXCR4 D97E + V112A (human, UniProt P61073-1 1-352, D97E | V112A). The experiment in a line: FACS.
Chain of CXCR4 D97E + V112A (human, UniProt P61073-1 1-352, D97E | V112A) (P61073 whole entry D97E/V112A): as the sequence (P61073 whole entry D97Q) above, with Q97E, V112A counted along it
The target in assay [20] is CXCR4 D97E + V112A + L41A (human, UniProt P61073-1 1-352, L41A | D97E | V112A). The experiment in a line: FACS.
Assay [21] has as its target CXCR4 E288A (human, UniProt P61073-1 1-352, E288 to Ala). Put plainly: FACS.
For assay [22], the target named is CXCR4 V112L (human, UniProt P61073-1 1-352, V112L). Put plainly: FACS.
Chain of CXCR4 V112L (P61073 whole entry V112L): as the sequence (P61073 whole entry D97Q) above, with Q97D, V112L counted along it
The target in assay [23] is CXCR4 E277A (human, UniProt P61073-1 1-352, E277A). Put plainly: FACS.
Chain of CXCR4 E277A (human, UniProt P61073-1 1-352, E277A) (P61073 whole entry E277A): as the sequence (P61073 whole entry D97Q) above, with Q97D, E277A counted along it
Assay [24] deals with CXCR4 L41A (human, UniProt P61073-1 1-352, L41A). The experiment in a line: FACS.
Chain of CXCR4 L41A (human, UniProt P61073-1 1-352, L41A) (P61073 whole entry L41A): as the sequence (P61073 whole entry D97Q) above, with L41A, Q97D counted along it
The target in assay [25] is CXCR4 E288D (human, UniProt P61073-1 1-352, E288 to Asp). Put plainly: FACS.
Chain of CXCR4 E288D (P61073 whole entry E288D): as the sequence (P61073 whole entry D97Q) above, with Q97D, E288D counted along it
The target in assay [26] is CXCR4 V112A (human, UniProt P61073-1 1-352, V112A). The experiment in a line: FACS.
For assay [27], the target named is CXCR4 D97E (human, UniProt P61073-1 1-352, D97E). The experiment in a line: FACS.
Chain of CXCR4 D97E (human, UniProt P61073-1 1-352, D97E) (P61073 whole entry D97E): as the sequence (P61073 whole entry D97Q) above, with Q97E counted along it
In assay [28] the target is CXCR4 D97T (human, UniProt P61073-1 1-352, D97T). The experiment in a line: FACS.
Assay [29] addresses CXCR4 D97N (human, UniProt P61073-1 1-352, D97N). The experiment in a line: FACS.

No end group written: not given here.

One may read the IC50 as the concentration that gives 50% inhibition.

Chain of CXCR4 E288A (P61073 whole entry E288A): as the sequence (P61073 whole entry D97Q) above, with Q97D, E288A counted along it

For the molecule “LVRYTKKVPQVSTPTL [EPI-X4, 16-mer fragment of albumin, endogenous antagonist and inverse agonist of CXCR4]”, the Fold change was 2.6 in [1]; 1.2 in assay [2]; 1.6 in assay [3]; 1.3 in assay [4]; 11 in assay [5]; 112 in [6]. In addition, the Fold change in [7] worked out at 0.7; in assay [8], 19; in assay [9] it was 18; in assay [10], 32; in [11] it was 7.

B1: EPI-X4 JM#21 (peptide)
peptide: ILRWSRKLPCVS
notes: source: synthetic peptide (Fmoc solid-phase synthesis, HPLC-purified)
Consider B1, for which the half-maximal inhibitory concentration (IC50) in assay [12] worked out at 145 nM; in assay [13], 230 nM; in assay [14], 8050 nM; in [15] it was 310 nM; in [16] it was 5390 nM; in [17] it was 370 nM. Moreover, the half-maximal inhibitory concentration (IC50) in assay [18] came out at 660 nM; in assay [19], 470 nM; in assay [20], 400 nM; in assay [21] it was 86400 nM; in assay [22], 410 nM; in assay [23], 280 nM. For the same molecule, the IC50 in assay [24] amounted to 720 nM; in assay [25], 14200 nM; in [26] it was 3450 nM; in [27] it was 1910 nM; in assay [28] it was 3830 nM; in assay [29], 11000 nM.

B2: WSC02 408–416-NH2 (peptide)
peptide: IVRWSKKVP-NH2
notes: WSC02 truncated by three residues; source: synthetic peptide (Fmoc solid-phase synthesis, HPLC-purified)
For the molecule B2, the half-maximal inhibitory concentration (IC50) in [12] stood at 312 nM.

B3: JM#21 408–416-NH2 (peptide)
peptide: ILRWSRKLP-NH2
notes: JM#21 truncated by three residues; source: synthetic peptide (Fmoc solid-phase synthesis, HPLC-purified)
Turning to B3, the IC50 in assay [12] amounted to 262 nM.

B4: EPI-X4 JM#21 408–414-NH2 (peptide)
peptide: ILRWSRK-NH2
notes: JM#21 truncated by five residues; source: synthetic peptide (Fmoc solid-phase synthesis, HPLC-purified)
B4 showed an IC50 in assay [12] of 157 nM.

B5: EPI-X4 408–414-NH2 (peptide)
peptide: LVRYTKK-NH2
notes: as for B1
Molecule B5 returned a 50% inhibitory concentration (IC50) in [12] of 954 nM.

B6: EPI-X4 408–416-NH2 (peptide)
peptide: LVRYTKKVP-NH2
notes: as for B1
Take B6: in assay [12], the IC50 was 1030 nM.

B7: WSC02 408–414-NH2 (peptide)
peptide: IVRWSKK-NH2
notes: WSC02 truncated by five residues; source: synthetic peptide (Fmoc solid-phase synthesis, HPLC-purified)
B7: the half-inhibitory concentration (IC50) in [12] was 469 nM.
